Test results published in the nanobody polyreactivity screen of Harvey et al. (2022).

experiment: yeast display, Sf9 membrane polyspecificity reagent, FACS + sequencing; frameworks hold sequencing errors
How it was run: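 In a synthetic yeast display library (Saccharomyces cerevisiae BJ5465), nanobody expression was induced with galactose for 36–48 hours. FACS gates were set low and high (top ~1%) using anti-HA fluorescence for expression and streptavidin fluorescence for binding of the Sf9 membrane reagent. Each polyreactivity label is drawn from the gate of origin.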

Row | Sequence | polyreactivity (PSR sort gate)
1 | QVQLVESGGGLVQAGGSLRLSCAASGRTFVGYAMGWYRQAPGKERELVAAITYSGVSTYYADSVKGRFTISRDNAKNTVYLQMNSLKPEDTAVYYCAADYISVYGYEYYYWGQGTQVTVSS | high polyreactivity
2 | QVQLVESGGGLVQAGGSLRLSCAASGRTFVGYAMGWYRQAPGKERELVASITASGGRTYYADSVKGRFTISRDNAKNTVYLQMNSLKPEDTAVYYCAAYIHWSEDYWGQGTQVTVSS | low polyreactivity
3 | QVQLVESGGGLVQAGGSLRLSCAASGRTFVGYSMGWYRQAPGKEREFVATITSSGRTNYADSVKGRFTISRDNAKNTVYLQMNSLKPEDTAVYYCNAVYGRFVDLRYDYWGHGTQVTVSS | high polyreactivity
4 | QVQLVESGGGLVQAGGSLRLSCAASGRTFVIYAMGWYRQAPGKEREFVAAISRSGGSTYYADSVKGRFTISRDNAKNTVYLQMNSLKPEDTAVYYCNTRTPYWFKSDYWGQGTQVTVSS | low polyreactivity
5 | QVQLVESGGGLVQAGGSLRLSCAASGRTFVIYARGWYRQAPGKEWALVAAINWRGGSTYYADSVKGRFTISRDNAKNTVYLQMNSLKPEDTAVYYCAADTGWWWLYDYWGQGTQVTVSS | high polyreactivity
6 | QVQLVESGGGLVQAGGSLRLSCAASGRTFVKNAMGWYRQAPGKERELVAAISSSGGSTYYADSVKGRFTISRDNAKNTVYLQMNSLKPEDTAVYYCNRYSRLYLTDDDYWGQGTQVTVSS | high polyreactivity
7 | QVQLVESGGGLVQAGGSLRLSCAASGRTFVKNNMGWYRQSPGKERELVAAISSSGGSTYYADSVKGRFTISRDNAKNSVYLHMNSLNPEDTAVYFCAVSYPYKHAGGWYAYNYWGQGTQVTVSS | high polyreactivity
8 | QVQLVESGGGLVQAGGSLRLSCAASGRTFVKYAMGWYRQAPGKERELVAAISWSGGSTYYADSVKGRFTISRDNAKNTVYLQMNSLKPEDTAVYYCAAPSSRGQGRNFDYWGQGTQVTVSS | high polyreactivity
9 | QVQLVESGGGLVQAGGSLRLSCAASGRTFVNYAMGWYRQAPGKEREFVAAITNGGRTNYADSVKGRFTISRDNAKNTVYLQMNSLKPEDTAVYYCAARYRFGGIRRYNYWGQGTQVTVSS | high polyreactivity
10 | QVQLVESGGGLVQAGGSLRLSCAASGRTFVNYAMGWYRQAPGKERELVAAITSDGSTSYADSVKGRFTISRDNAKNTVYLQMNSLKPEDTAVYFCAKDFFEHSPVSHTYSSSKYDYWGQGTQVTVSS | low polyreactivity
11 | QVQLVESGGGLVQAGGSLRLSCAASGRTFVNYTMGWDRQAPGKERELVAAIRYRDGSTYYADSVKGRFTISRDNAKNTVYLQMNSLKPEDTAVYYCNTRITQVGDYIYDYWGQGTQVTVSS | low polyreactivity
12 | QVQLVESGGGLVQAGGSLRLSCAASGRTFVPNTMGWYRQAPGKERELVAAIRWSVGSTYYADSVKGRFTISRDNAKNTVYLQMNSLKPEDTAVYYCAAYYSRSYLRYGMDYWGQGTQVTVSS | high polyreactivity
13 | QVQLVESGGGLVQAGGSLRLSCAASGRTFVPYAMGWYRQAPGKEREFVAAISSRVGSTYYADSVKGRFTISRDNAKNTVYLQRNSLKPEDTAVYYCNAPFKPAGFYSAWKYDYWGQGTQVTVSS | low polyreactivity
14 | QVQLVESGGGLVQAGGSLRLSCAASGRTFVQYVMGWYRQAPGKERELVARISSGGSTFYADSVKGRFTISRDNAKNSVYLQLNSLKPEDTAVYYCAAQWTRYRRRPMDYWGQGTQVTVSS | high polyreactivity
15 | QVQLVESGGGLVQAGGSLRLSCAASGRTFVRNAMGWYRQAPGKERELVAAISSSGGSTYYADSVKGRFTISRDNAKNTVYLQMNSLKPEDTAVYYCAAFRIGREYWGQGTQVTVSS | high polyreactivity
16 | QVQLVESGGGLVQAGGSLRLSCAASGRTFVRNTMGWYRQAPGKEREFVAAISRSGGNTNYADSVKGRFTISRDNAKNTVYLQMNSLKPEDTAVYYCATRAGYQVYPNKMNYWGQGTQVTVSS | high polyreactivity

Row | Sequence | polyreactivity (PSR sort gate)
17 | QVQLVESGGGLVQAGGSLRLSCAASGRTFVSYAMGWYRPAPGKERELVAGISWSGDSTYYADSVKGRFTISRDNAKNTVYLEMNSLKPEDSAVYYCAAYGPFIYGGHHYNYWGQGTQVTVSS | low polyreactivity
18 | QVQLVESGGGLVQAGGSLRLSCAASGRTFVTNAMGWYRQAPGKERELVAAISKSGGRTYYADSVKGRFTISRDNAKNTVYLQMNRLKPEDTAVYYCAADKRYLSYDYWGQGTQVTVSS | high polyreactivity
19 | QVQLVESGGGLVQAGGSLRLSCAASGRTFVTNAMGWYRQAPGKERELVAAISSGDDSTYYADSVKGRFTISRDNAKNTVYLQMNSLKPEDTAVYYCAAEGYYVDYYFYFHGFDYWGQGTQVTVSS | high polyreactivity
20 | QVQLVESGGGLVQAGGSLRLSCAASGRTFVTNAMGWYRQAPGKERELVAAITQRGGRTYYADSVKGRFTISRDNAKNTVYLQMNSLKPEDTAVYYCAASYYGWSARYDTLGIYEYWGQGTQVTVSS | high polyreactivity
21 | QVQLVESGGGLVQAGGSLRLSCAASGRTFVTYAMGWYRQAPGKEREFVAAISRNGGSTYYADSVKGRFTISRDNAKNTVYLQMNSLKPEDTAVYYCAKGRPWYRGDYWGQGTQVTVSS | low polyreactivity
22 | QVQLVESGGGLVQAGGSLRLSCAASGRTFVVNAMGWYRQAPGKERELVATIRWSGGRTYYADSVKGRFTISRDNAKNTVYLQMNSLKPEDTAVYYCAADFKGLFSSELDYWGQGTQVTVSS | low polyreactivity
23 | QVQLVESGGGLVQAGGSLRLSCAASGRTFVVYAMGWYRQAPGKERELVAAINWSGTSTYYADSVKGRFTISRDNAKNTVYLQMNSLKPEDTAVYYCAAVAGLGTYRRYGYWGQGTQVTVSS | high polyreactivity
24 | QVQLVESGGGLVQAGGSLRLSCAASGRTFVVYAMGWYRQAPGKERELVAVIRVIGGSTNYADSVKGRFTISRDNAKNTVYLQMNSLKPEDTAVYYCAADGVVVVAADMYYWGQGTQVTVSS | low polyreactivity
25 | QVQLVESGGGLVQAGGSLRLSCAASGRTFVWNAMGWYRQAPGKERELVAAIDWSGGSTYYADSVKGRFTISRDNAKNTVYLQMNSLKPEDTAGYYCAKEYWYRALWYNYWGQGTQVTVSS | high polyreactivity
26 | QVQLVESGGGLVQAGGSLRLSCAASGRTFVWNAMGWYRQAPGKERELVAAISSSGTSTYYADSVKGRFTISRDNAKNTVYLQMNSLKPEDTAVYYCAKDLLYQPTIRDYWGQGTQVTVSS | low polyreactivity
27 | QVQLVESGGGLVQAGGSLRLSCAASGRTFVYNAMGWYRQAPGIERELVAAITTSGASTYYADSVKGRFTISRDNAKNTVYLQMNSLKPEDTAVYDCNAYSRYSYGRTYGYWGQGTQVTVSS | high polyreactivity
28 | QVQLVESGGGLVQAGGSLRLSCAASGRTFVYNAMGWYRQAPGKERELVATITFSGGSTYYADSVKGRFTISRDNAKNTVYLQMNSLKPEDTAVYYCNTQGVHHYYHAPQVRGYDYWGQGTQVTVSS | low polyreactivity
29 | QVQLVESGGGLVQAGGSLRLSCAASGRTFVYNVMGWYRQAPGKERELVAAISSGGSTNYADSVKGRFTISRDNGKNTVYVQMNSLKPEDTAVYYCNAGTLYYRYRWGHYYDSWGQGTQVTVSS | low polyreactivity
30 | QVQLVESGGGLVQAGGSLRLSCAASGRTFVYTMGWYRQAPGKERELVAAIRYSGGRTYYADSVKGRFTISRDNAKNTVYLQMNSLKPEDTAVYYCAARNYATGVRYDYWGQGTQVTVSS | high polyreactivity
31 | QVQLVESGGGLVQAGGSLRLSCAASGRTFVYYAMGWYRQAPGKEREFVATISDGGGTYYADSVKGRFTISRDNAKNTVYLQMNSMNPEDSAVYYCNARGTPWRYGGDYWGQGTQVTVSS | low polyreactivity
